Reference: PMC3578862, “Single Residue Mutation in Active Site of Serine Acetyltransferase Isoform 3 from Entamoeba histolytica Assists in Partial Regaining of Feedback Inhibition by Cysteine” (PLoS ONE, 2013)

Legend:
[1] = target: T1, Serine acetyltransferase isoform 1 (EhSAT1) (Entamoeba histolytica, UniProt Q9U8X2); assay: SAT activity assay, acetyl-CoA thioester cleavage at […] nm, […] serine; type: biochemical
T1 construct: gene EhSAT
T1 sequence (Q9U8X2 1-305): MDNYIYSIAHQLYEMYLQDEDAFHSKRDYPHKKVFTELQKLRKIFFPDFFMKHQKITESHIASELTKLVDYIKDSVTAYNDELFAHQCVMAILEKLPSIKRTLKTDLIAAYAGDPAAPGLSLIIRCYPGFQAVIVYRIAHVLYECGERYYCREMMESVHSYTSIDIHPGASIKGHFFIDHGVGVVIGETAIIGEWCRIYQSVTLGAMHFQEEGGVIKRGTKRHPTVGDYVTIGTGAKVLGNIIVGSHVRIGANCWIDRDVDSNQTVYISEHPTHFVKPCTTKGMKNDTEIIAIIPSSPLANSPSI

purified protein = substrate: N[C@@H](CO)C(=O)O; assay: purified protein; type: biochemical, Entamoeba histolytica; conditions: acetyl coenzyme A active site

N[C@@H](CS)C(=O)O [L-cysteine]
IC50 [1]: 9.59 µM

B1: Serine acetyltransferase isoform 3 (EhSAT3) (Entamoeba histolytica) (protein)
chain: MSSLLQQTSQLLVQSYQSDNIAFKSTKQFPEKKSFLELELIQKILFPDFFTRRDKRTFNNVLERLSLLVYHIQNSIEAYYNQQLAEKCITALLSQFVTIRELVKQDIIAAYTGDPAASSLAMIIRSYPGIHVMMIQRVAHILYMNGDIEYSRELMENIHSVTGIDIHPGTSIGNHFFIDHGVGVVIGETAVIGNWCRVYQSVTLGAMSFKEDNGIVIKGNKRHPTIGDFVVIGAGAKVLGNITIGSNVKIGANCWITQNIDQDQIVFISEHPSQITKSSTKQSSKDDKIILQSLTENKISEEQENLSWVNSPELLCTYTSEESTPINLDCFVSCQQ
Km (purified protein): 52.0 µM

B2: Serine acetyltransferase isoform 1 (EhSAT1) (Entamoeba histolytica) (protein)
chain: T1 sequence (Q9U8X2 1-305)
Km (purified protein; Asp114, Asp179, His180, His208, Arg222, His223): 43.5 µM
